Data reported in the supplement of paper PMC12042874.
± gives the uncertainty stated by the source.

Experiment: amyloid nucleation score (Sup35N fusion, yeast selection) (log enrichment); library NNK1; higher = more nucleation; inactive = no reads after selection
Procedure, shortened: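 Sup35N was fused to peptides of 20 random codons and expressed in psi-negative yeast, which were induced with 100 μM copper sulfate for 24 hours and then grown on medium lacking adenine and uracil for 7 days at 30°C. Plasmid inserts from input and output were sequenced on Illumina. The nucleation score is the DiMSum log enrichment of output over input reads, centred on the mode score of non-aggregating sequences. Sequences with under 100 input reads were left out, and random libraries had three technical output replicates.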

DNSLYE and DPADAPMITRNVGTWAKQVP are within error of each other in amyloid nucleation score: -2.11 ± 2.7 for the first, 0.324 ± 0.97 for the second.

DPAHLSGWLLCSP and DPCSVGFVPPMVLGSLGGDV are within error of each other in amyloid nucleation score: 0.624 ± 0.45 for the first, -0.248 ± 0.71 for the second.

First: DPICFYYYFLVN
Second: DPLRMILVISFRMVRFIQWP
The amyloid nucleation score of the first is lower: -2.01 ± 1.5 for the first, 0.072 ± 0.32 for the second.

DPQTGDGVLAMNKWEPYRGL and DQRRGFSMETSYTD are within error of each other in amyloid nucleation score: 0.697 ± 0.48 for the first, 1.42 ± 0.71 for the second.

DRAGERMGIR and DRFNCKCFVLSKVLCWYGVG are within error of each other in amyloid nucleation score: 0.13 ± 0.28 for the first, 0.851 ± 0.79 for the second.

DRKVGNHLFTRVCDEATMLM and DRRCLRYSLNCLLFRSIYYN are within error of each other in amyloid nucleation score: 1.75 ± 0.41 for the first, 0.652 ± 1 for the second.

DRSDDGHNESLWAVLMRHKV and DSCEW are within error of each other in amyloid nucleation score: 0.315 ± 0.52 for the first, -0.062 ± 0.58 for the second.

DSGLFSKVVMHDNPSSVDKL and DSGWRWCNRSTSVGNVNVMR are within error of each other in amyloid nucleation score: -0.123 ± 0.64 for the first, 0.171 ± 0.43 for the second.

DSKLLSPDFRGRLIYRIFDD and DSLLEIGRSGVNELVGGLAD are within error of each other in amyloid nucleation score: -0.101 ± 0.46 for the first, -0.422 ± 1.2 for the second.

DSNFVTGWMTSIMLRVGVLR and DSPNVVQLLKYTLRYEARLG are within error of each other in amyloid nucleation score: 0.514 ± 1.2 for the first, 0.877 ± 0.16 for the second.

DSTSDMLHLIIRTMISLISR and DTGLRLD are within error of each other in amyloid nucleation score: -0.257 ± 0.35 for the first, 0.536 ± 0.54 for the second.

DTLIAWTGLVMFTSVERGCS and DTNQGYGVSGQIVKGRICFN are within error of each other in amyloid nucleation score: -0.299 ± 0.37 for the first, -0.681 ± 0.47 for the second.

First: DTNTSIMHTIPRVGLNGCRR
Second: DTPNISAFYLWNLRKRLMIF
The amyloid nucleation score of the first is higher: 10.02 ± 0.051 for the first, -0.023 ± 0.31 for the second.

DTQESSNIVRSLPRLVGLLG and DTYKSPKHYRRL are within error of each other in amyloid nucleation score: 0.248 ± 0.43 for the first, 0.608 ± 0.64 for the second.

Going from DVFADGKVIQAYLM to DVFGLLSIYYR, the amyloid nucleation score rises from -0.117 ± 0.39 to 1.1 ± 0.57.

First: DVQQPPMDSISH
Second: DWGRLVYRFNCKDRNRDGAR
The amyloid nucleation score of the first is higher: 1.17 ± 0.57 for the first, 0.177 ± 0.41 for the second.

Compared with DWMLISE, DWSIDILYSVIRSPVNLINS is lower in amyloid nucleation score: -0.084 ± 0.28 for the first, -1.01 ± 0.52 for the second.

DWSRQFYMFVNVKARLFRGT and DYAFKFCFQLVDKAYRSLSY are within error of each other in amyloid nucleation score: -0.05 ± 0.69 for the first, -0.413 ± 0.27 for the second.

DYDTMSNFSDSALCTPIRCD and DYFSRKPGNCFWFAIARDNT are within error of each other in amyloid nucleation score: 0.485 ± 0.35 for the first, -0.398 ± 1.2 for the second.

Compared with DYNIVYYNLYNTYINNYQSF, DYRGTPNSWMIFMTPRGSLI is lower in amyloid nucleation score: 7.72 ± 0.048 for the first, -0.004 ± 1.1 for the second.

DYRGYFKSDIYSNFLTFLPG and DYYLATCYLPYALNCLAFLN are within error of each other in amyloid nucleation score: -0.663 ± 0.22 for the first, -1.18 ± 0.97 for the second.

First: EAARMWSFNGNLSVFWIT
Second: EANMIYFLNGANLHRFFKHF
The amyloid nucleation score of the first is higher: 5.72 ± 0.097 for the first, 1.59 ± 0.35 for the second.

Going from EAPGTKFCC to ECCQDVIFFVAQINTCIEVT, the amyloid nucleation score falls from 2.94 ± 0.1 to 0.221 ± 0.37.

ECRVCL and ECVNLLR are within error of each other in amyloid nucleation score: -0.807 ± 2.4 for the first, 0.471 ± 0.25 for the second.

EDGPWACTCYYCGQGRRTWV and EDGSQ are within error of each other in amyloid nucleation score: 0.16 ± 0.9 for the first, 0.532 ± 0.42 for the second.

EDSLPLDMEVNLGRIVEPKM and EEQVDLIWLMYGAYHVCVMW are within error of each other in amyloid nucleation score: 1.14 ± 0.59 for the first, 0.416 ± 0.43 for the second.

Going from EERDFKEPSRLVIIKLTVMF to EERVFVYRLWYQSLVRHYEL, the amyloid nucleation score falls from 3.18 ± 0.12 to -0.204 ± 0.41.

EESSPEAWSVRERTAGVFVF and EFGASRNAYTMRRILENGSA are within error of each other in amyloid nucleation score: -0.09 ± 0.86 for the first, -0.123 ± 0.38 for the second.

EFLMIQIVMGAPGCHKGTRR and EFLRNGLIILIVSLSAGELS are within error of each other in amyloid nucleation score: 0.322 ± 0.47 for the first, 0.137 ± 0.23 for the second.

EFQMLEFYRANLPSKSQNTL and EFSSKMSRMM are within error of each other in amyloid nucleation score: -0.777 ± 0.43 for the first, 0.268 ± 1.2 for the second.

EGGRFKHRMNSCHYNSFGLH and EGMAARSWDCMYVWG are within error of each other in amyloid nucleation score: -0.255 ± 0.76 for the first, 0.35 ± 0.42 for the second.

EGRYTRDFKCRFSSERHSPS and EGSIMRGWLFICYNLF are within error of each other in amyloid nucleation score: 0.014 ± 0.47 for the first, -0.244 ± 0.93 for the second.

With DPHYL the amyloid nucleation score was “inactive”.
For DRRRNCYFIRLWQGLGYIS, the amyloid nucleation score was “inactive”.
With DSRCGPM the amyloid nucleation score was “inactive”.
For DVDTRRT, the amyloid nucleation score was “inactive”.
In the case of DWFLTLAKVYSLNGQVFRMR, the amyloid nucleation score is reported as “inactive”.
For EAPYISFVLIG, the amyloid nucleation score was “inactive”.
